Experimental data taken from the supplement of paper PMC9112550, “Optimization of the antimicrobial peptide Bac7 by deep mutational scanning” (BMC Biology, 2022).
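Note: peptides expressed intracellularly from a pBAD plasmid library in pooled LB shake-flask culture, induced with 0.3% L-arabinose, DNA abundance read by NGS, three biological replicates, DESeq2 with apeglm shrinkage.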

What follows are sequences tested on Escherichia coli TOP10 (assay: shrunken log2 fold change of peptide-encoding DNA abundance (4.5 h post-induction vs induction); higher = less antimicrobial activity (less host growth inhibition)). Details: time post-induction: 4.5 h; library: site-saturation at positions 5, 18, 19, 20.
RRIRERPPRLPRPRPRPSAQPRP was tested, and the “shrunken log2 fold change” value was -0.167.
In the case of RRIRTRPPRLPRPRPRPIDRPRP, the “shrunken log2 fold change” value is reported as -0.148.
For RRIRQRPPRLPRPRPRPKSIPRP, the “shrunken log2 fold change” value was -0.695.
For RRIRGRPPRLPRPRPRPRFRPRP, the “shrunken log2 fold change” value was 0.3.
With RRIRHRPPRLPRPRPRPAPLPRP the “shrunken log2 fold change” value was 0.16.
In the case of RRIRKRPPRLPRPRPRPCGIPRP, the “shrunken log2 fold change” value is reported as 0.0772.
RRIRERPPRLPRPRPRPSENPRP was tested, and the “shrunken log2 fold change” value was -0.293.
RRIRCRPPRLPRPRPRPSTRPRP was tested, and the “shrunken log2 fold change” value was -0.119.
RRIRWRPPRLPRPRPRPESAPRP was tested, and the “shrunken log2 fold change” value was 1.15.
With RRIRMRPPRLPRPRPRPAYNPRP the “shrunken log2 fold change” value was -0.236.
RRIRERPPRLPRPRPRPQSCPRP was tested, and the “shrunken log2 fold change” value was 0.00299.
RRIRERPPRLPRPRPRPEMIPRP was tested, and the “shrunken log2 fold change” value was -0.0286.
With RRIRGRPPRLPRPRPRPQIMPRP the “shrunken log2 fold change” value was 0.173.
For RRIRMRPPRLPRPRPRPGKCPRP, the “shrunken log2 fold change” value was -0.0233.
For RRIRSRPPRLPRPRPRPVGWPRP, the “shrunken log2 fold change” value was 0.839.
In the case of RRIRMRPPRLPRPRPRPAGFPRP, the “shrunken log2 fold change” value is reported as 0.733.
With RRIRVRPPRLPRPRPRPRYMPRP the “shrunken log2 fold change” value was -0.528.
For RRIRTRPPRLPRPRPRPTVMPRP, the “shrunken log2 fold change” value was -0.152.
In the case of RRIRSRPPRLPRPRPRPCLVPRP, the “shrunken log2 fold change” value is reported as -0.379.
With RRIRDRPPRLPRPRPRPEKTPRP the “shrunken log2 fold change” value was 0.0897.
In the case of RRIRCRPPRLPRPRPRPMPGPRP, the “shrunken log2 fold change” value is reported as 0.0112.
RRIRHRPPRLPRPRPRPLPYPRP was tested, and the “shrunken log2 fold change” value was -0.137.
For RRIRARPPRLPRPRPRPESMPRP, the “shrunken log2 fold change” value was 0.77.
In the case of RRIRGRPPRLPRPRPRPNFVPRP, the “shrunken log2 fold change” value is reported as -0.0668.
With RRIRSRPPRLPRPRPRPWKCPRP the “shrunken log2 fold change” value was -0.0598.
RRIRNRPPRLPRPRPRPSVKPRP was tested, and the “shrunken log2 fold change” value was -0.195.
With RRIRCRPPRLPRPRPRPERGPRP the “shrunken log2 fold change” value was 0.472.
RRIRSRPPRLPRPRPRPLAMPRP was tested, and the “shrunken log2 fold change” value was 0.087.
With RRIRRRPPRLPRPRPRPWMMPRP the “shrunken log2 fold change” value was 0.0519.
In the case of RRIRVRPPRLPRPRPRPAYTPRP, the “shrunken log2 fold change” value is reported as -0.286.
RRIRVRPPRLPRPRPRPAVWPRP was tested, and the “shrunken log2 fold change” value was 0.458.
RRIRYRPPRLPRPRPRPWRCPRP was tested, and the “shrunken log2 fold change” value was 2.33.
RRIRYRPPRLPRPRPRPPHTPRP was tested, and the “shrunken log2 fold change” value was -0.656.
RRIRSRPPRLPRPRPRPYCNPRP was tested, and the “shrunken log2 fold change” value was -0.709.
With RRIRKRPPRLPRPRPRPMQHPRP the “shrunken log2 fold change” value was 0.589.
For RRIRMRPPRLPRPRPRPVAFPRP, the “shrunken log2 fold change” value was 0.579.
For RRIRGRPPRLPRPRPRPDPFPRP, the “shrunken log2 fold change” value was 0.302.
In the case of RRIRVRPPRLPRPRPRPHDNPRP, the “shrunken log2 fold change” value is reported as -0.445.
RRIRDRPPRLPRPRPRPPWAPRP was tested, and the “shrunken log2 fold change” value was 0.311.
With RRIRSRPPRLPRPRPRPDPNPRP the “shrunken log2 fold change” value was -0.000549.
For RRIRMRPPRLPRPRPRPTERPRP, the “shrunken log2 fold change” value was 0.582.
With RRIRMRPPRLPRPRPRPGIYPRP the “shrunken log2 fold change” value was -0.075.
With RRIRVRPPRLPRPRPRPGHRPRP the “shrunken log2 fold change” value was -0.0978.
In the case of RRIRYRPPRLPRPRPRPTFWPRP, the “shrunken log2 fold change” value is reported as 0.0421.
In the case of RRIRYRPPRLPRPRPRPWSLPRP, the “shrunken log2 fold change” value is reported as 0.0143.
In the case of RRIRGRPPRLPRPRPRPIGFPRP, the “shrunken log2 fold change” value is reported as 0.061.
RRIRQRPPRLPRPRPRPRMRPRP was tested, and the “shrunken log2 fold change” value was 0.583.
In the case of RRIRKRPPRLPRPRPRPCSQPRP, the “shrunken log2 fold change” value is reported as 0.0126.
In the case of RRIRARPPRLPRPRPRPQWYPRP, the “shrunken log2 fold change” value is reported as -0.523.
With RRIRVRPPRLPRPRPRPKPVPRP the “shrunken log2 fold change” value was 0.42.
For RRIRDRPPRLPRPRPRPCTDPRP, the “shrunken log2 fold change” value was -0.00136.
RRIRGRPPRLPRPRPRPPVCPRP was tested, and the “shrunken log2 fold change” value was 0.213.
With RRIRKRPPRLPRPRPRPDISPRP the “shrunken log2 fold change” value was -0.0841.
With RRIRVRPPRLPRPRPRPYWIPRP the “shrunken log2 fold change” value was -0.163.
For RRIRRRPPRLPRPRPRPPTKPRP, the “shrunken log2 fold change” value was 0.52.
With RRIRWRPPRLPRPRPRPTRHPRP the “shrunken log2 fold change” value was 0.37.
RRIRGRPPRLPRPRPRPCYFPRP was tested, and the “shrunken log2 fold change” value was -0.0409.
RRIRPRPPRLPRPRPRPIIKPRP was tested, and the “shrunken log2 fold change” value was -0.417.
With RRIRDRPPRLPRPRPRPLPLPRP the “shrunken log2 fold change” value was -0.0937.
RRIRLRPPRLPRPRPRPCGYPRP was tested, and the “shrunken log2 fold change” value was -0.111.
In the case of RRIRERPPRLPRPRPRPDRWPRP, the “shrunken log2 fold change” value is reported as -0.0318.
In the case of RRIRSRPPRLPRPRPRPAEVPRP, the “shrunken log2 fold change” value is reported as -0.0708.
With RRIRCRPPRLPRPRPRPIHWPRP the “shrunken log2 fold change” value was -0.363.
In the case of RRIRHRPPRLPRPRPRPQENPRP, the “shrunken log2 fold change” value is reported as -0.245.
With RRIRHRPPRLPRPRPRPLPHPRP the “shrunken log2 fold change” value was -0.162.
With RRIRRRPPRLPRPRPRPGKAPRP the “shrunken log2 fold change” value was 0.112.
For RRIRLRPPRLPRPRPRPEKFPRP, the “shrunken log2 fold change” value was -0.175.
RRIRCRPPRLPRPRPRPWHPPRP was tested, and the “shrunken log2 fold change” value was -0.0323.
In the case of RRIRPRPPRLPRPRPRPETGPRP, the “shrunken log2 fold change” value is reported as -0.0114.
For RRIRHRPPRLPRPRPRPYWWPRP, the “shrunken log2 fold change” value was -0.196.
RRIRYRPPRLPRPRPRPCCCPRP was tested, and the “shrunken log2 fold change” value was -0.211.
For RRIRERPPRLPRPRPRPDNPPRP, the “shrunken log2 fold change” value was -0.0894.
In the case of RRIRKRPPRLPRPRPRPDFIPRP, the “shrunken log2 fold change” value is reported as -0.209.
RRIRFRPPRLPRPRPRPEVIPRP was tested, and the “shrunken log2 fold change” value was 0.0373.
For RRIRVRPPRLPRPRPRPNQFPRP, the “shrunken log2 fold change” value was -0.349.
